# In patent US20230137562A1, “TAU AGGREGATION INHIBITORS” (priority 2017, published 2023):
# Where “and” joins values, the source holds several entries; their conditions need not be identical. Equal entries are not always repeated.
# Legend:
# [1] = target: His-Tau40P301L Tau (UniProt P10636-8 1-441); experiment: cell-based or functional assay
# [2] = target: T1, Ac-VQIINK-NH2; experiment: cell-based or functional assay
# T1 peptide: Ac-VQIINK-NH2
# His-Tau40P301L Tau, sequence (P10636 other isoform, or with tags, fused parts or gaps limits assumed): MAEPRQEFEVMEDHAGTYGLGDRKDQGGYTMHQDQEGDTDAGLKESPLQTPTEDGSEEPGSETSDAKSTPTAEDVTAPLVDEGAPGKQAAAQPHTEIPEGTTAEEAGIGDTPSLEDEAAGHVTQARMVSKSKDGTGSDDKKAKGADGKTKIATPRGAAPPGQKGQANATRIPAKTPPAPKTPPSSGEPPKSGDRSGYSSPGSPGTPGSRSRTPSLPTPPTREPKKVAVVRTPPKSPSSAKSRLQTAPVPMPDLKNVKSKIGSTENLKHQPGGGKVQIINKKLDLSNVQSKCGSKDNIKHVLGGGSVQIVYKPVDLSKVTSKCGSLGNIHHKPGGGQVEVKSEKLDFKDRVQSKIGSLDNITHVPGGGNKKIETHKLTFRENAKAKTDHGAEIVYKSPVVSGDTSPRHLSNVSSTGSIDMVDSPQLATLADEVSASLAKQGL
binder,measurement,setting,value
WKIHIWWR,"IC50 (µM), Tau40 assay (ThT)",[1],5.75 µM
same,"IC50 (µM), VQIINK Inhibition (ThT)",[2],2.01 µM
WRIWIRW,"IC50 (µM), Tau40 assay (ThT)",[1],2.98 µM and 2.1 µM and 2.11 µM
same,"IC50 (µM), VQIINK Inhibition (ThT)",[2],2.73 µM
WRIRARW,"IC50 (µM), Tau40 assay (ThT)",[1],8.01 µM
same,"IC50 (µM), VQIINK Inhibition (ThT)",[2],4.07 µM
WRIRIRR,"IC50 (µM), Tau40 assay (ThT)",[1],3.15 µM
same,"IC50 (µM), VQIINK Inhibition (ThT)",[2],34.1 µM
WIRYWIRW,"IC50 (µM), Tau40 assay (ThT)",[1],2.42 µM
same,"IC50 (µM), VQIINK Inhibition (ThT)",[2],1.78 µM
RIRIFIW,"IC50 (µM), Tau40 assay (ThT)",[1],3.94 µM
same,"IC50 (µM), VQIINK Inhibition (ThT)",[2],1.57 µM
IRWRIRW,"IC50 (µM), Tau40 assay (ThT)",[1],2.82 µM
same,"IC50 (µM), VQIINK Inhibition (ThT)",[2],9.77 µM
FRIKLRW,"IC50 (µM), Tau40 assay (ThT)",[1],2.6 µM
same,"IC50 (µM), VQIINK Inhibition (ThT)",[2],2.38 µM
WIRYWWRI,"IC50 (µM), Tau40 assay (ThT)",[1],3.69 µM
same,"IC50 (µM), VQIINK Inhibition (ThT)",[2],2.8 µM
KIRLYWW,"IC50 (µM), Tau40 assay (ThT)",[1],5.73 µM
same,"IC50 (µM), VQIINK Inhibition (ThT)",[2],2.86 µM
WIRIRYW,"IC50 (µM), Tau40 assay (ThT)",[1],2.6 µM
same,"IC50 (µM), VQIINK Inhibition (ThT)",[2],6.02 µM
WKVQVRLW,"IC50 (µM), Tau40 assay (ThT)",[1],2.4 µM and 2.31 µM
same,"IC50 (µM), VQIINK Inhibition (ThT)",[2],1.35 µM
HRIRIRW,"IC50 (µM), Tau40 assay (ThT)",[1],3.28 µM
same,"IC50 (µM), VQIINK Inhibition (ThT)",[2],9.07 µM
FRIRIKHY,"IC50 (µM), Tau40 assay (ThT)",[1],9.45 µM
same,"IC50 (µM), VQIINK Inhibition (ThT)",[2],3.61 µM
WRIWIREW,"IC50 (µM), Tau40 assay (ThT)",[1],2.76 µM
same,"IC50 (µM), VQIINK Inhibition (ThT)",[2],3.96 µM
WRIWIRLW,"IC50 (µM), Tau40 assay (ThT)",[1],7.32 µM
same,"IC50 (µM), VQIINK Inhibition (ThT)",[2],3.97 µM
IWIRYWRW,"IC50 (µM), Tau40 assay (ThT)",[1],2.73 µM
same,"IC50 (µM), VQIINK Inhibition (ThT)",[2],2.15 µM
LKIHIRHW,"IC50 (µM), Tau40 assay (ThT)",[1],3.79 µM
same,"IC50 (µM), VQIINK Inhibition (ThT)",[2],3.05 µM
IRIRWRW,"IC50 (µM), Tau40 assay (ThT)",[1],2.78 µM
same,"IC50 (µM), VQIINK Inhibition (ThT)",[2],4.86 µM
RIWIRIW,"IC50 (µM), Tau40 assay (ThT)",[1],6.47 µM
same,"IC50 (µM), VQIINK Inhibition (ThT)",[2],3.17 µM
RIRIRWW,"IC50 (µM), Tau40 assay (ThT)",[1],4.57 µM
same,"IC50 (µM), VQIINK Inhibition (ThT)",[2],10.2 µM
WRIRIRA,"IC50 (µM), Tau40 assay (ThT)",[1],8.31 µM
same,"IC50 (µM), VQIINK Inhibition (ThT)",[2],8.28 µM
WRIWIRYR,"IC50 (µM), Tau40 assay (ThT)",[1],2.64 µM
same,"IC50 (µM), VQIINK Inhibition (ThT)",[2],3.33 µM
ARIRIRW,"IC50 (µM), Tau40 assay (ThT)",[1],4.19 µM
same,"IC50 (µM), VQIINK Inhibition (ThT)",[2],2.72 µM
RIRIAIW,"IC50 (µM), Tau40 assay (ThT)",[1],4.14 µM
same,"IC50 (µM), VQIINK Inhibition (ThT)",[2],1.8 µM
WRIHIRW,"IC50 (µM), Tau40 assay (ThT)",[1],3.09 µM
same,"IC50 (µM), VQIINK Inhibition (ThT)",[2],1.47 µM
KWWIRIRYW,"IC50 (µM), Tau40 assay (ThT)",[1],4.62 µM and 7.02 µM
same,"IC50 (µM), VQIINK Inhibition (ThT)",[2],1.8 µM
RIWIRYW,"IC50 (µM), Tau40 assay (ThT)",[1],2.42 µM
same,"IC50 (µM), VQIINK Inhibition (ThT)",[2],4.87 µM
IWIRYWWR,"IC50 (µM), Tau40 assay (ThT)",[1],2.44 µM
same,"IC50 (µM), VQIINK Inhibition (ThT)",[2],2.01 µM
